Source: US9266923B2, “Compositions and methods for treatment of thrombosis and for prolonging survival of stored platelets” (priority 2010, dated 2016)

Tests used:
human GPIbα = target: T1, human GPIbα (Homo sapiens, UniProt P07359); experiment: In vivo anti-thrombotic activity, tail bleeding time in transgenic mice expressing human GPIbα; set-up: species or system transgenic mouse
T1 construct: mice expressing human GPIbα; expressed in transfected cells; host or cells: platelets of transgenic mice (Ware et al., PNAS 97:2803-08 (2000))
T1 sequence (P07359 17-652, one chain of several): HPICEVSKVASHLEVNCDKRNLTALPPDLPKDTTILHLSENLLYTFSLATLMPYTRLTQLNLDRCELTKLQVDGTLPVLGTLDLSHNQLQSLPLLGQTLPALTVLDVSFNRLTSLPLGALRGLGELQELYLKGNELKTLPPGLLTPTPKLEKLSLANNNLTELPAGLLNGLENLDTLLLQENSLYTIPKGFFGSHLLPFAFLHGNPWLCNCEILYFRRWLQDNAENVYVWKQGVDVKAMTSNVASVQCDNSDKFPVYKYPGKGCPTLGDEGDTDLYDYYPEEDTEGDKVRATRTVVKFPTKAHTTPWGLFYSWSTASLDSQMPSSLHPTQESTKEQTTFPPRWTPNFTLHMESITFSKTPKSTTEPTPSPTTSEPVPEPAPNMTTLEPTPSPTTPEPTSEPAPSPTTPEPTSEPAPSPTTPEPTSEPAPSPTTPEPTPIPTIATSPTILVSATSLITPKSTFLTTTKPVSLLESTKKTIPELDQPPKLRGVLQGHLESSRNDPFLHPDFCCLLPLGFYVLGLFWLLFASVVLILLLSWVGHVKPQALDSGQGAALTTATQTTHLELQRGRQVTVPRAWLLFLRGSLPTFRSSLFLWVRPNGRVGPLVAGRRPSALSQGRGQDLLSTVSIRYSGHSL
Text: (§1) CCP-014 extended tail bleeding time, as measured in Ware et al., Id.

mouse platelet GPIbα = target: T2, mouse platelet GPIbα (Mus musculus, UniProt O35930); experiment: In vivo activity in wild-type mice
T2 construct: endogenous in cells; host or cells: platelets of wild-type mice (in vivo)
T2 sequence (O35930 17-734): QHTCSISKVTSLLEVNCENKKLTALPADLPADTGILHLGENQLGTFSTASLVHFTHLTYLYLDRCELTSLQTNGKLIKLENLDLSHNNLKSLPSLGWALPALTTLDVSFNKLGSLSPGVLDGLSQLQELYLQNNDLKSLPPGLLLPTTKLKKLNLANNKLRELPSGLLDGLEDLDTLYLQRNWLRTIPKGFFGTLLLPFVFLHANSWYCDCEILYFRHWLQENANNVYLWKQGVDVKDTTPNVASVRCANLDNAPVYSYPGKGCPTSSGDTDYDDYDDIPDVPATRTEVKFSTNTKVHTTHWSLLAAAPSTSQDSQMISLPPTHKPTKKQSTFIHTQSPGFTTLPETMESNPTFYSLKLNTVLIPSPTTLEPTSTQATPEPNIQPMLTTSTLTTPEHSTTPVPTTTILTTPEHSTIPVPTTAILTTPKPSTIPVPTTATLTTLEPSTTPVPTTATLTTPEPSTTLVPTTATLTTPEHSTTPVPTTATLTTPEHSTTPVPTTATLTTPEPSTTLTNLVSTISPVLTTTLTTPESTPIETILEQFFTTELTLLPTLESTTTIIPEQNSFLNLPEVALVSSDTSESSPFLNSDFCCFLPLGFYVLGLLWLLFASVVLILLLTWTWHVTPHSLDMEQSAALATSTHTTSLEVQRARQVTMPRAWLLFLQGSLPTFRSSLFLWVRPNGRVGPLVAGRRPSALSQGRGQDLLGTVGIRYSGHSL
T2 sequence (P56400 27-206 partner): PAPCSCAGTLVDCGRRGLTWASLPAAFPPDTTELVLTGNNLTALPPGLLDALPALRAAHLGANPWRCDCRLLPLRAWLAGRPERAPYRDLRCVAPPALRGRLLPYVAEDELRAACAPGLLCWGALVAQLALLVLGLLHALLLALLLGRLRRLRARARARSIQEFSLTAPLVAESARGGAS
T2 sequence (O88186 17-177 partner): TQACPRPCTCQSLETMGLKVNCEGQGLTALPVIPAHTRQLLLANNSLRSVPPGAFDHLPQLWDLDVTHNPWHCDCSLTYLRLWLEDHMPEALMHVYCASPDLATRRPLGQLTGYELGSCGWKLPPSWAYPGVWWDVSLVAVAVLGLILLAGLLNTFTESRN
Text: as §1

## Ac-A C T E R M A L H N L C G G-NH2 (SEQ ID NO: 1) or Ac-A C T E R M A L H N L C G G K-NH2 (SEQ ID NO: 2) (Ac-ACTERMALHNLCGGK-NH2; cysteine pairing not given here) [CCP-014]
Human GPIbα; mice expressing human GPIbα, measured as in Ware et al.
  tail bleeding time: extended
Human GPIbα; transgenic mice in which human GPIbα replaces the mouse platelet GPIbα
  activity in vivo: active
Mouse platelet GPIbα
  activity in vivo: not active
